Experimental data as given in publication PMC7565984, “A Phosphorylation-Induced Switch in the Nuclear Localization Sequence of the Intrinsically Disordered NUPR1 Hampers Binding to Importin” (Biomolecules, 2020).
[ ]: non-standard residue; d: D form. pT = C[C@@H](OP(=O)(O)O)[C@H](N)C(=O)O

T1: human importin α3 (intact, with the IBB domain) (human, UniProt O00629 1-521)
T1 construct: human importin α3 (KPNA4), intact protein with the IBB domain; codon-optimized synthetic DNA in the vector pHTP1; also called Impα3; KPNA4; source: E. coli BL21 (DE3), purified (as for ΔImpα3)
T1 sequence (looked up): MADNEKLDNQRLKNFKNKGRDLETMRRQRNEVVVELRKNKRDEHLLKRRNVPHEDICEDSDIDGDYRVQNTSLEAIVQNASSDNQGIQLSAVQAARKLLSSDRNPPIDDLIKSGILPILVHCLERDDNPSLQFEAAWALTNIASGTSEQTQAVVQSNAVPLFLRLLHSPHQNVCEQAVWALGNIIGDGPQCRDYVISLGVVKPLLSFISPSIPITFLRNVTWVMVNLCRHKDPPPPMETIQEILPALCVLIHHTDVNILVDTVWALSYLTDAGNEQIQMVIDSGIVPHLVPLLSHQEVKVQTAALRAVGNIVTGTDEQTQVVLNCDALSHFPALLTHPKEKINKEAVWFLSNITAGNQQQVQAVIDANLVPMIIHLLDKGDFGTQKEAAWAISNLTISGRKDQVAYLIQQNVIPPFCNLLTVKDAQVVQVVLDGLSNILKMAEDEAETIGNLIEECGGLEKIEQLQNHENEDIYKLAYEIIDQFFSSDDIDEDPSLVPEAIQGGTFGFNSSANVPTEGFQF

T2: truncated importin α3 without the IBB domain (residues 64-521) (human, UniProt O00629 64-521)
T2 construct: human importin α3 (KPNA4) without the IBB domain, residues 64-521; also called ΔImpα3; ΔImportin
T2 sequence (looked up): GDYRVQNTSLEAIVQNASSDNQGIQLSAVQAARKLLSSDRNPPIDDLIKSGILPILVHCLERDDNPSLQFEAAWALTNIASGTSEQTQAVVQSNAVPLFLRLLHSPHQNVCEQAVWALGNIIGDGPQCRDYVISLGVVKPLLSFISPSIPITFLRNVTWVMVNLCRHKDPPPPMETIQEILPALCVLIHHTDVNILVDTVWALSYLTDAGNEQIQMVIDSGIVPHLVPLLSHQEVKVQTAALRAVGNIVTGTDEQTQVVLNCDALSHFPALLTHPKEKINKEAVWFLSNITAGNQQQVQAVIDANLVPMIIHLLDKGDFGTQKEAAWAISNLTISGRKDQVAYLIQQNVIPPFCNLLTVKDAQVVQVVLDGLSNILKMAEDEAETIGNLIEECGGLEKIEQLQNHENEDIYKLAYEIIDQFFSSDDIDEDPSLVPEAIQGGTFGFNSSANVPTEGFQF


Experiments:
[1] = molecular target: T1, human importin α3 (intact, with the IBB …); assay: ITC; Impα3 or ΔImpα3 (10–20 μM) in the cell, NLS-NUPR1 peptide (150–300 μM) in the syringe; Tris 50 mM, pH 8; 298 K; single ligand binding site (1:1) model, n gives the fraction of binding-competent protein; conditions: both partners purified
[2] = molecular target: T2, truncated importin α3 without the IBB …; assay: as above; conditions: both partners purified

| Binder | Kd [1] [µM] | dH [1] [kcal/mol] | Kd [2] [µM] | dH [2] [kcal/mol] | stoichiometry N [1] | stoichiometry N [2] |
| --- | --- | --- | --- | --- | --- | --- |
| Ac-YTNRPSPGGHERKLVEKLQNSE-NH2 (tyrosine introduced at the N terminus for absorbance measurements; not a residue of NUPR1; also called T68E peptide; Thr68Glu; source: synthetic peptide (NZYtech, purity 95%)) [NLS-NUPR1 peptide T68E (phospho-mimetic)] | 22 | -11.1 | 12 | -17.5 | – | – |
| Ac-YTNRPSPGGHERALVTKLQNSE-NH2 (tyrosine introduced at the N terminus for absorbance measurements; not a residue of NUPR1; also called K65A peptide; Lys65Ala; source: synthetic peptide (NZYtech, purity 95%)) [NLS-NUPR1 peptide K65A] | 3.9 | -2.8 | 2.7 | -10.2 | 1.4 | 1.4 |
| Ac-YTNRPSPGGHERKLVEALQNSE-NH2 (tyrosine introduced at the N terminus for absorbance measurements; not a residue of NUPR1; also called T68EK69A peptide; source: synthetic peptide (NZYtech, purity 95%)) [NLS-NUPR1 peptide T68EK69A] | 17 | -7.5 | 17 | -21.2 | – | – |
| Ac-YTNRPSPGGHERALVEALQNSE-NH2 (tyrosine introduced at the N terminus for absorbance measurements; not a residue of NUPR1; also called K65AT68EK69A peptide; triple mutant; source: synthetic peptide (NZYtech, purity 95%)) [NLS-NUPR1 peptide K65AT68EK69A] | – | -16.3 | 24 | -28.5 | – | – |
| Ac-YTNRPSPGGHERKLV[pT]KLQNSE-NH2 (SMILES CC(=O)N[C@@H](Cc1ccc(O)cc1)C(=O)N[C@H](C(=O)N[C@@H](CC(N)=O)C(=O)N[C@@H](CCCNC(=N)N)C(=O)N1CCC[C@H]1C(=O)N[C@@H](CO)C(=O)N1CCC[C@H]1C(=O)NCC(=O)NCC(=O)N[C@@H](Cc1c[nH]cn1)C(=O)N[C@@H](CCC(=O)O)C(=O)N[C@@H](CCCNC(=N)N)C(=O)N[C@@H](CCCCN)C(=O)N[C@@H](CC(C)C)C(=O)N[C@H](C(=O)N[C@H](C(=O)N[C@@H](CCCCN)C(=O)N[C@@H](CC(C)C)C(=O)N[C@@H](CCC(N)=O)C(=O)N[C@@H](CC(N)=O)C(=O)N[C@@H](CO)C(=O)N[C@@H](CCC(=O)O)C(N)=O)[C@@H](C)OP(=O)(O)O)C(C)C)[C@@H](C)O, tyrosine introduced at the N terminus for absorbance measurements; not a residue of NUPR1; Thr68 is printed as pT (phospho-threonine); also called pT68; pT68 peptide; source: synthetic peptide (NZYtech, purity 95%)) [NLS-NUPR1 peptide phosphorylated at Thr68] | 27 | -14.8 | 29 | -28.2 | – | – |
